# From patent EP4582451A1 (Changchun Genescience Pharmaceutical Co., Ltd., dated 2025)
# Read-outs that look alike come from different tables or passages of the source.
# Tests used:
# [1] = molecular target: T1, human thyroid-stimulating hormone receptor (TSHR) (human, UniProt P16473 21-764); assay: cell-based or functional assay
# [2] = molecular target: T1, human thyroid-stimulating hormone …; assay: cell-based or functional assay; remark: listed apart in the source
# [3] = molecular target: T2, mouse thyroid-stimulating hormone receptor (TSHR) (mouse, UniProt P47750 22-764); assay: flow cytometry (FACS), 293 cells overexpressing mouse TSHR
# T2 construct: whole, on cells; Overexpressed on 293 cells; also called mouse TSHR; murine TSHR
# [4] = molecular target: T3, monkey thyroid-stimulating hormone receptor (TSHR) (monkey, UniProt A0A2K5X226 21-764); assay: flow cytometry (FACS), 293 cells overexpressing monkey TSHR
# T3 construct: Overexpressed on 293 cells; also called monkey TSHR
# [5] = molecular target: T4, hFcRn-Avi (Biosystems, FCM-H82W7) (human (printed as hFcRn), UniProt P55899 24-297; P61769 21-119, biotin on the Avi tag is implied by capture on an SA chip); assay: SPR (Biacore 8K+), hFcRn-Avi captured on SA chip, antibody in flow, pH 6.0, 25 C, steady-state fit
# T4 construct: Bought reagent
# [6] = molecular target: T1, human thyroid-stimulating hormone …; assay: flow cytometry (FACS), 293 cells overexpressing human TSHR
# [7] = molecular target: T2, mouse thyroid-stimulating hormone …; assay: flow cytometry (FACS), 293 cells overexpressing mouse TSHR; remark: listed apart in the source
# [8] = molecular target: T3, monkey thyroid-stimulating hormone …; assay: flow cytometry (FACS), 293 cells overexpressing monkey TSHR; remark: listed apart in the source
# [9] = molecular target: T1, human thyroid-stimulating hormone …; assay: cell-based or functional assay; remark: listed apart in the source
# [10] = molecular target: T1, human thyroid-stimulating hormone …; assay: flow cytometry (FACS), 293 cells overexpressing human TSHR; remark: listed apart in the source
# T4 sequence (P55899 24-297 limits assumed, chain 1 of 2): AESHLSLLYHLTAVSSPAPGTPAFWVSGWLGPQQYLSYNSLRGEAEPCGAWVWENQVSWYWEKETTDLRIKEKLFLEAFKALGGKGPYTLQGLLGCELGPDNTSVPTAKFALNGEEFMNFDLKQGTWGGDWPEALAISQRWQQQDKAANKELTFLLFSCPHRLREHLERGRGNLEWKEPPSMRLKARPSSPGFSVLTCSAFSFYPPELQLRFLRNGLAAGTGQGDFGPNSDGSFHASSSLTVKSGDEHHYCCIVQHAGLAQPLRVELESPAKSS
# T4 sequence (P61769 21-119 limits assumed, chain 2 of 2): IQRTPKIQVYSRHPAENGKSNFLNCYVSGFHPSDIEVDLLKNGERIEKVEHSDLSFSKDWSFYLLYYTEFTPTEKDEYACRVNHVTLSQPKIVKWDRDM
# T3 sequence (A0A2K5X226 entry or part of it limits assumed, form in doubt): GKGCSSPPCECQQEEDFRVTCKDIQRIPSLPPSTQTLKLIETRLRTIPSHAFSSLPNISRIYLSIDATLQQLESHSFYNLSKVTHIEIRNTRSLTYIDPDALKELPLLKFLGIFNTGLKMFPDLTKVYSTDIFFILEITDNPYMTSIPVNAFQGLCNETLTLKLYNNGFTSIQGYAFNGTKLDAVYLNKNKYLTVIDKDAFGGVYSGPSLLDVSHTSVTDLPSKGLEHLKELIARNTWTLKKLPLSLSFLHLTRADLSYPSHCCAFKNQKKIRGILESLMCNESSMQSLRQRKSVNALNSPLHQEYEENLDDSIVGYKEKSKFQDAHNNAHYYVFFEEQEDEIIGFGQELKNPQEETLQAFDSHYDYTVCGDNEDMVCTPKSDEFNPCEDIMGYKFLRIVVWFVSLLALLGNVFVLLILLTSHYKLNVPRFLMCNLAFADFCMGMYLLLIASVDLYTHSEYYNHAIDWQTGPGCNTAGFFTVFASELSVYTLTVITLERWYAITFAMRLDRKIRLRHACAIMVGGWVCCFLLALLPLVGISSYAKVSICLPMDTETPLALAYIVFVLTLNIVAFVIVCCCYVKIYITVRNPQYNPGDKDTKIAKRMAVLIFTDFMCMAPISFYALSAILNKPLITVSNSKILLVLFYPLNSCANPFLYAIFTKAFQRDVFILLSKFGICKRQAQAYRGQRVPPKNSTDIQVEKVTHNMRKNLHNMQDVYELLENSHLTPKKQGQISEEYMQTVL
# T2 sequence (P47750 22-764): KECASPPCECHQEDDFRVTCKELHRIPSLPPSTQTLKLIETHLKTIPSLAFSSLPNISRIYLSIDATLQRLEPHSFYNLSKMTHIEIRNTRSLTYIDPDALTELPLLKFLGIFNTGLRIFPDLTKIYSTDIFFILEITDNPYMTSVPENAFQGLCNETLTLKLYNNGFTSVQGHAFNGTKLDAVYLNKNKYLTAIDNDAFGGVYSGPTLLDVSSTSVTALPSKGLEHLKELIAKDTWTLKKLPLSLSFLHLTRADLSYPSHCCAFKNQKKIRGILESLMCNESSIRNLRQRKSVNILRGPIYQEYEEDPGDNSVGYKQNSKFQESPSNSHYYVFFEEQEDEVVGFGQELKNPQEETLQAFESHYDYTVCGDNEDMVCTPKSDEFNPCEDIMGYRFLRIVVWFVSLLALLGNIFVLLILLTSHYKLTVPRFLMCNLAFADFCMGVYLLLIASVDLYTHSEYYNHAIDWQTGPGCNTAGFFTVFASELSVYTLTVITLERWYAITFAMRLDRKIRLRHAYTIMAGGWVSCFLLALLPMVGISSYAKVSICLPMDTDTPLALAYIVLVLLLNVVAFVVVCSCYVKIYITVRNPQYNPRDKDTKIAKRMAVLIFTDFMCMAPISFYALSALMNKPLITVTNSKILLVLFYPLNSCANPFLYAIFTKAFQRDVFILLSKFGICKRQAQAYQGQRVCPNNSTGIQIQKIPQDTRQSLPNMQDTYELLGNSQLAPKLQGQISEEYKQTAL
# T1 sequence (P16473 21-764): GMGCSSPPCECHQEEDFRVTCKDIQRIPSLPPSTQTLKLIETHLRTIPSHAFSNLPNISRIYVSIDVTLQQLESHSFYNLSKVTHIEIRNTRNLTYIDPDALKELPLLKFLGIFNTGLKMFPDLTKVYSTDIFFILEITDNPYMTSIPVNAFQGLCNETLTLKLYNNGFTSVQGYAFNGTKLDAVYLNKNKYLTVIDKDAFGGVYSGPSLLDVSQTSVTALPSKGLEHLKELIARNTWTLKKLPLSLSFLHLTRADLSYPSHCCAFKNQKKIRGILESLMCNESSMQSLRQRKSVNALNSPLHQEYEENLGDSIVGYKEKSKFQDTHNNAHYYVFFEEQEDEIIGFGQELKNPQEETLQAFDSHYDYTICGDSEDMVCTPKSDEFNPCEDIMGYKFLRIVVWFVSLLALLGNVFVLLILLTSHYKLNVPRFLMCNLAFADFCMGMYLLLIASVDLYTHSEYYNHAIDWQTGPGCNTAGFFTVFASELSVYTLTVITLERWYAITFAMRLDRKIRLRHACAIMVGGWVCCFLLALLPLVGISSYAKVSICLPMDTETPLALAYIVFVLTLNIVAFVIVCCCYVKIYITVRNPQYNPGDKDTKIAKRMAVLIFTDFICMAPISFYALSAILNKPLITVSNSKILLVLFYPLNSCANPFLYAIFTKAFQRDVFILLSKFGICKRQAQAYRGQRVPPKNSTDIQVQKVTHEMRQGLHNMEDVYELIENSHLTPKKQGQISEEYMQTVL
Binder,"IC50(nM), cAMP in 293-human TSHR cells activated by Tab01 (30 nM) [1] [nM]","IC50(nM), cAMP in 293-human TSHR cells activated by Tab02 (6.5 nM) [1] [nM]","IC50 (nM), cAMP in 293-human TSHR cells activated by Tab01 [2] [nM]","IC50 (nM), cAMP in 293-human TSHR cells activated by Tab02 [2] [nM]","Maximum inhibition rate (%), cAMP in 293-human TSHR cells activated by Tab01 [2] [%]","Maximum inhibition rate (%), cAMP in 293-human TSHR cells activated by Tab02 [2] [%]",EC50 [3] [nM],Maximum binding signal [3],EC50 [4] [nM],Maximum binding signal [4],Kd [5] [nM],Response value (RU) [5] [RU],EC50 [6] [nM],Max_MFI [6],EC50 [7] [nM],Max_MFI [7],EC50 [8] [nM],Max_MFI [8],also measured
"humanized antibody cAb01-VH2-DA-VL3 (named hAb01_G4P) (antibody, human IgG4 S228P, kappa) heavy: not shown light: EIVLTQSPATLSLSPGERATLSCSASSSVSYMHWYQQKPGQAPKRWIYDTSKLASGVPARFSGSGSGTDYTLTISSLEPEDFAVYYCQQWSSNPWTFGGGTKLEIKRTVAAPSVFIFPPSDEQLKSGTASVVCLLNNFYPREAKVQWKVDNALQSGNSQESVTEQDSKDSTYSLSSTLTLSKADYEKHKVYACEVTHQGLSSPVTKSFNRGEC",2.2,2.2,2.28,2.4,102,94.2,3.22,123000,2.6,193000,343,35.8,,,,,,,
"hAb01_G4P_V2 (antibody, human IgG4 S228P, kappa, also called hAb01_G4_V2) heavy: EVQLVESGGGLVKPGGSLRLSCAASGFTLSDYYIYWVRQAPGKGLEWVATISDAVIYTYYADSVKGRFTISRDNAKNSLYLQMNSLRAEDTAVYFCARAYGSSEVMDYWGQGTLVTVSSASTKGPSVFPLAPCSRSTSESTAALGCLVKDYFPEPVTVSWNSGALTSGVHTFPAVLQSSGLYSLSSVVTVPSSSLGTKTYTCNVDHKPSNTKVDKRVESKYGPPCPPCPAPEFEGGPSVFLFPPKPKDTLYITREPEVTCVVVDVSQEDPEVQFNWYVDGVEVHNAKTKPREEQFNSTYRVVSVLTVLHQDWLNGKEYKCKVSNKGLPSSIEKTISKAKGQPREPQVYTLPPSQEEMTKNQVSLTCLVKGFYPSDIAVEWESNGQPENNYKTTPPVLDSDGSFFLYSRLTVDKSRWQEGNVFSCSVMHEALHNHYTQKSLSLSLGK light: EIVLTQSPATLSLSPGERATLSCSASSSVSYMHWYQQKPGQAPKRWIYDTSKLASGVPARFSGSGSGTDYTLTISSLEPEDFAVYYCQQWSSNPWTFGGGTKLEIKRTVAAPSVFIFPPSDEQLKSGTASVVCLLNNFYPREAKVQWKVDNALQSGNSQESVTEQDSKDSTYSLSSTLTLSKADYEKHKVYACEVTHQGLSSPVTKSFNRGEC",,,4.18,4.38,106,100,,,,,121,73.5,4.64,287000,2.43,135000,2.94,189000,
"humanized antibody cAb01-VH1-DA-VL3 (antibody, human IgG4 S228P, kappa, V domains shown, Humanized from mAb001) VH: EVQLVESGGGLVKPGGSLRLSCAASGFTLSDYYIYWVRQAPGKGLEWVSTISDAVIYTYYADSVKGRFTISRDNAKNSLYLQMNSLRAEDTAVYYCARAYGSSEVMDYWGQGTLVTVSS VL: EIVLTQSPATLSLSPGERATLSCSASSSVSYMHWYQQKPGQAPKRWIYDTSKLASGVPARFSGSGSGTDYTLTISSLEPEDFAVYYCQQWSSNPWTFGGGTKLEIKR",0.085,0.054,,,,,2.9,106000,2.3,180000,,,,,,,,,
"humanized antibody cAb01-VH2-DA-VL2 (antibody, human IgG4 S228P, kappa, V domains shown, Humanized from mAb001) VH: EVQLVESGGGLVKPGGSLRLSCAASGFTLSDYYIYWVRQAPGKGLEWVATISDAVIYTYYADSVKGRFTISRDNAKNSLYLQMNSLRAEDTAVYFCARAYGSSEVMDYWGQGTLVTVSS VL: EIVLTQSPATLSLSPGERATLSCSASSSVSYMHWYQQKPGQAPRRWIYDTSKLASGIPARFSGSGSGTDYTLTISSLEPEDFAVYYCQQWSSNPWTFGGGTKLEIKR",,,,,,,2.16,117000,2.14,193000,,,,,,,,,"IC50(nM), cAMP in 293-human TSHR cells activated by Tab01 (30 nM) [9]: 0.28 nM; IC50(nM), cAMP in 293-human TSHR cells activated by Tab02 (6.5 nM) [9]: 0.15 nM; Inhibition rate (%), cAMP in 293-human TSHR cells activated by Tab01 (30 nM) [9]: 76.7%; Inhibition rate (%), cAMP in 293-human TSHR cells activated by Tab02 (6.5 nM) [9]: 86.2%; EC50 [10]: 3.71 nM; Maximum binding signal [10]: 396000"
"hAb01_G1_V4 (antibody, human IgG1, kappa, L234A L235A) heavy: EVQLVESGGGLVKPGGSLRLSCAASGFTLSDYYIYWVRQAPGKGLEWVATISDAVIYTYYADSVKGRFTISRDNAKNSLYLQMNSLRAEDTAVYFCARAYGSSEVMDYWGQGTLVTVSSASTKGPSVFPLAPSSKSTSGGTAALGCLVKDYFPEPVTVSWNSGALTSGVHTFPAVLQSSGLYSLSSVVTVPSSSLGTQTYICNVNHKPSNTKVDKKVEPKSCDKTHTCPPCPAPEAAGGPSVFLFPPKPKDTLYITREPEVTCVVVDVSHEDPEVKFNWYVDGVEVHNAKTKPREEQYNSTYRVVSVLTVLHQDWLNGKEYKCKVSNKALPAPIEKTISKAKGQPREPQVYTLPPSRDELTKNQVSLTCLVKGFYPSDIAVEWESNGQPENNYKTTPPVLDSDGSFFLYSKLTVDKSRWQQGNVFSCSVMHEALHNHYTQKSLSLSPGK light: EIVLTQSPATLSLSPGERATLSCSASSSVSYMHWYQQKPGQAPKRWIYDTSKLASGVPARFSGSGSGTDYTLTISSLEPEDFAVYYCQQWSSNPWTFGGGTKLEIKRTVAAPSVFIFPPSDEQLKSGTASVVCLLNNFYPREAKVQWKVDNALQSGNSQESVTEQDSKDSTYSLSSTLTLSKADYEKHKVYACEVTHQGLSSPVTKSFNRGEC",,,5.4,2.04,94,91.1,,,,,90,94.5,4.4,371000,2.75,178000,2.77,244000,
